Numbering of substitutions follows the chain as printed. In names and notes the source's numbering stands. Like-named read-outs stand apart in the source and are kept apart here.
T1: SHV-1 β-lactamase (UniProt P0AD64 22-286)
T1 sequence (looked up): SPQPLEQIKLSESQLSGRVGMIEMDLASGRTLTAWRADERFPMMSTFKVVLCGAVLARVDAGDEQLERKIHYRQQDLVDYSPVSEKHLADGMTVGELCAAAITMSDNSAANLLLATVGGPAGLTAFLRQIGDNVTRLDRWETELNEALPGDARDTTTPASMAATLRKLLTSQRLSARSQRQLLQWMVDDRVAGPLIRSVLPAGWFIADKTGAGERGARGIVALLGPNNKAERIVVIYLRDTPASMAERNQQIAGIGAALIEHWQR

T2: SME-1 β-lactamase (UniProt P52682 28-294)
T2 sequence: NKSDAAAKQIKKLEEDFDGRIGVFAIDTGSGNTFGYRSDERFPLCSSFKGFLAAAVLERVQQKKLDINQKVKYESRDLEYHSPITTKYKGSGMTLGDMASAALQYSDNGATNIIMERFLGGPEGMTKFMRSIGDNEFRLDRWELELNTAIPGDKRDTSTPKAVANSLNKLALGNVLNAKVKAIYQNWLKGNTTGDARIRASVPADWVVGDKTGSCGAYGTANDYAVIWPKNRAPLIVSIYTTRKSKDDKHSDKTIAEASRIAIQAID

B1: β-lactamase inhibitory protein (BLIP), wild type (natural protein, Streptomyces clavuligerus, UniProt P35804 37-201, looked up)
chain: AGVMTGAKFTQIQFGMTRQQVLDIAGAENCETGGSFGDSIHCRGHAAGDYYAYATFGFTSAAADAKVDSKSQEKLLAPSAPTLTLAKFNQVTVGMTRAQVLATVGQGSCTTWSEYYPAYPSTAGVTLSLSCFDVDGYSSTGFYRGSAHLWFTDGVLQGKRQWDLV
B2: BLIP W112D (natural protein)
chain: B1 chain with W112D
B3: BLIP R160G (natural protein)
chain: B1 chain with R160G
B4: BLIP E73K:K74T (natural protein)
chain: B1 chain with E73K, K74T
B5: BLIP K74T (natural protein)
chain: B1 chain with K74T
B6: BLIP K74T:W112D (natural protein)
chain: B1 chain with K74T, W112D
B7: BLIP E73K:R160G (natural protein)
chain: B1 chain with E73K, R160G
B8: BLIP E73K (natural protein)
chain: B1 chain with E73K
B9: BLIP K74T:R160G (natural protein)
chain: B1 chain with K74T, R160G

Tests used:
[1] = biological target: SME-1 beta-lactamase (Serratia marcescens) (UniProt P52682); conditions: cited from earlier work
[2] = biological target: KPC-2 beta-lactamase (Klebsiella pneumoniae) (UniProt Q9F663); conditions: cited from earlier work
[3] = biological target: CTX-M-14 beta-lactamase (Escherichia coli); conditions: cited from earlier work
[4] = biological target: T3, KPC-2 β-lactamase (purified) (UniProt Q9F663 30-293); experiment: cell-based or functional assay
[5] = biological target: T3, KPC-2 β-lactamase (purified); experiment: enzyme inhibition assay
[6] = biological target: T3, KPC-2 β-lactamase (purified); experiment: enzyme inhibition assay; remark: listed apart in the source
[7] = biological target: T4, TEM-1 β-lactamase (purified) (UniProt P62593 24-286); experiment: enzyme inhibition assay
[8] = biological target: T4, TEM-1 β-lactamase (purified); experiment: enzyme inhibition assay; remark: listed apart in the source
[9] = biological target: T3, KPC-2 β-lactamase (purified); experiment: cell-based or functional assay; remark: listed apart in the source
[10] = biological target: T3, KPC-2 β-lactamase (purified); experiment: enzyme inhibition assay; remark: listed apart in the source
[11] = biological target: T3, KPC-2 β-lactamase (purified); experiment: activity-based association and dissociation kinetics
SHV-1 β-lactamase = biological target: T1, SHV-1 β-lactamase; experiment: enzyme inhibition assay
[12] = biological target: T4, TEM-1 β-lactamase (purified); experiment: enzyme inhibition assay; remark: listed apart in the source
CTX-M-14 β-lactamase = CTX-M-14 β-lactamase (UniProt Q9L5C7 1-291); experiment: enzyme inhibition assay
SME-1 β-lactamase = biological target: T2, SME-1 β-lactamase; experiment: enzyme inhibition assay

Row | Molecule | ampicillin MIC of E. coli TP142 (chromosomal blaKPC-2) carrying the BLIP plasmid [4] | Ki [5] | Ki [6] | Ki [7] | Ki [8] | ampicillin MIC of E. coli TP142 (chromosomal blaKPC-2) carrying the BLIP plasmid [9] | Ki [10] | Kd [11] | koff [11] | kon [11] | also measured
1 | BLIP (from UniProt P35804) |  |  |  |  |  |  |  |  |  |  | Ki [1]: 2.4 nM; Ki [2]: 0.082 nM; Ki [3]: 800 nM
2 | B1 | 1 µg/mL | 1.2 ± 0.4 nM | 0.2 ± 0.2 nM |  |  |  |  |  |  |  | 
3 | B2 | 1 µg/mL | 1080 ± 551 nM | 587 ± 63 nM | 1190 ± 701 nM | 1270 ± 212 nM |  |  |  |  |  | 
4 | B3 | 0.75 µg/mL | 0.9 ± 0.4 nM | 0.4 ± 0.3 nM | 236 ± 115 nM | 236 ± 85 nM |  |  |  |  |  | 
5 | B4 |  |  |  |  |  | ≤ 3 µg/mL | 1.6 ± 0.8 nM | 1.3 nM | 0.0004 s⁻¹ | 300000 M⁻¹ s⁻¹ | 
6 | B5 | 1.5 µg/mL | 1.8 ± 2.8 nM | 1.5 ± 1 nM | 110 ± 23 nM | 151 ± 97 nM |  |  |  |  |  | 
7 | B6 |  |  |  |  |  | ≤ 3 µg/mL | 0.4 ± 0.2 nM | 0.13 nM | 3e-05 s⁻¹ | 200000 M⁻¹ s⁻¹ | Ki (SHV-1 β-lactamase): > 10000 nM; Ki [12]: > 10000 nM; Ki (CTX-M-14 β-lactamase): > 10000 nM; Ki (SME-1 β-lactamase): 450 nM
8 | B7 |  |  |  |  |  | ≤ 3 µg/mL | 128 ± 30 nM | 60 nM | 0.03 s⁻¹ | 500000 M⁻¹ s⁻¹ | 
9 | B8 | 1.5 µg/mL | 13.7 ± 6.6 nM | 8.9 ± 6.3 nM | 835 ± 172 nM | 2530 ± 578 nM |  |  |  |  |  | 
10 | B9 |  |  |  |  |  | ≤ 3 µg/mL | 150 ± 57 nM |  |  |  | 
